Article PMC4842197, “Preclinical in vivo application of ^152Tb-DOTANOC: a radiolanthanide for PET imaging” (EJNMMI Research, 2016)
Bridge positions count the residues as written; N and C are the ends. Square brackets hold non-standard residues; d marks the D form. Peptide text beside a SMILES is read from it. * marks the point of attachment. DOTA = O=C(O)CN1CCN(CC(=O)O)CCN(CC(=O)*)CCN(CC(=O)O)CC1; 1Nal = N[C@@H](Cc1cccc2ccccc12)C(=O)O; Thr(ol) = C[C@@H](O)[C@H](N)CO

Legend:
in vivo = conditions: female, CD-1 Foxn-1/nu nude, mouse, iv, total radioactivity, Biodistribution
Method: (§1) AR42J tumor cells, a rat exocrine pancreatic tumor cell line which is known to express the somatostatin receptor, were obtained from the European Collection of Cell Cultures (ECACC). The cells were cultured in RPMI 1640 medium, supplemented with 10 % fetal calf serum, L-glutamine, and antibiotics under standard conditions in a humidified atmosphere with 5 % CO2 at 37 °C. Routine culture was performed by trypsinization of the cells twice a week. To inoculate the animals, the cells were detached using trypsin, centrifuged, and resuspended in PBS at a concentration of 5 × 10^6 cells/100 μL.
(§2) In vivo experiments were approved by the local veterinary department and conducted in accordance with the Swiss law of animal protection. Female nude mice (CD-1 Foxn-1/nu) were purchased from Charles River Laboratories (Sulzfeld, Germany). The animals were fed with a standard rodent chow ad libitum (Kliba Nafag, Kaiseraugst, Switzerland).
(§3) About 2 weeks prior to biodistribution and imaging studies, the mice were inoculated with AR42J tumor cells by subcutaneous injection of the cell suspension (5 × 10^6 cells/100 μL) on each shoulder.
(§4) Mice were euthanized at pre-determined time points between 30 min and 22 h after injection of the radioconjugate. […] Selected tissues and organs were collected, weighed, and counted for radioactivity using a γ-counter (Packard Canberra Cobra II, USA). The results were listed as a percentage of the injected activity per gram of tissue mass (% IA/g), using counts of a defined volume of the original injection solution measured at the same time.

AR42J tumor-bearing mice = experiment: in vivo; conditions: female, CD-1 Foxn-1/nu nude, mouse, iv, 5 nmol per mouse, 5 h
Method: as §1, §2, §3, §4

[1] = 2.5 nmol per mouse (5 MBq), AR42J tumor
[2] = 2.5 nmol per mouse (5 MBq), Blood
[3] = 2.5 nmol per mouse (5 MBq), Bone
[4] = 2.5 nmol per mouse (5 MBq), Brain
[5] = 2.5 nmol per mouse (5 MBq), Heart
[6] = 2.5 nmol per mouse (5 MBq), Lung

## C[C@@H](O)[C@@H]1NC(=O)[C@H](CCCCN)NC(=O)[C@@H](Cc2c[nH]c3ccccc23)NC(=O)[C@H](Cc2cccc3ccccc23)NC(=O)[C@@H](NC(=O)[C@@H](Cc2ccccc2)NC(=O)CN2CCN(CC(=O)O)CCN(CC(=O)O)CCN(CC(=O)O)CC2)CSSC[C@@H](C(=O)N[C@H](CO)[C@@H](C)O)NC1=O [^177Lu-DOTANOC, metal not drawn] ({DOTA}-[dF]C[1Nal][dW]KTC[Thr(ol)]; disulfide 2-7)
In vivo; 0.5 nmol peptide, Adrenals
  tissue uptake at 5 h: 0.7 ± 0.13 %ID/g
In vivo; 0.5 nmol peptide, Kidneys
  tissue uptake at 5 h: 6.63 ± 0.1 %ID/g
In vivo; 0.5 nmol peptide, Lung
  tissue uptake at 5 h: 1.18 ± 0.36 %ID/g
In vivo; 0.5 nmol peptide, Spleen
  tissue uptake at 5 h: 0.24 ± 0.03 %ID/g
In vivo; 0.5 nmol per mouse, AR42J Tumor
  tissue uptake at 5 h: 25.3 ± 4.14 %ID/g
In vivo; 0.5 nmol, Blood
  tissue uptake at 5 h: 0.09 ± 0.01 %ID/g
In vivo; 0.5 nmol, Bone
  tissue uptake at 5 h: 0.33 ± 0.08 %ID/g
In vivo; 0.5 nmol, Brain
  tissue uptake at 5 h: 0.01 %ID/g
In vivo; 0.5 nmol, Heart
  tissue uptake at 5 h: 0.08 ± 0.01 %ID/g
In vivo; 0.5 nmol, Liver
  tissue uptake at 5 h: 0.34 ± 0.01 %ID/g
In vivo; 0.5 nmol, Muscle
  tissue uptake at 5 h: 0.02 ± 0.01 %ID/g
In vivo; 0.5 nmol, Stomach
  tissue uptake at 5 h: 3.78 ± 0.28 %ID/g
In vivo; [1]
  tissue uptake at 0.5 h: 9.02 ± 0.33 %ID/g
  tissue uptake at 2 h: 8.32 ± 0.47 %ID/g
  tissue uptake at 5 h: 8.45 ± 1.04 %ID/g
  tissue uptake at 16 h: 5.48 ± 0.98 %ID/g
  tissue uptake at 22 h: 4.51 ± 0.37 %ID/g
In vivo; [2]
  tissue uptake at 0.5 h: 2.52 ± 0.65 %ID/g
  tissue uptake at 2 h: 0.09 ± 0.01 %ID/g
  tissue uptake at 5 h: 0.06 ± 0.01 %ID/g
  tissue uptake at 16 h: 0.07 ± 0.01 %ID/g
  tissue uptake at 22 h: 0.03 %ID/g
In vivo; [3]
  tissue uptake at 16 h: 0.12 ± 0.05 %ID/g
  tissue uptake at 22 h: 0.08 ± 0.01 %ID/g
In vivo; [4]
  tissue uptake at 0.5 h: 0.06 ± 0.01 %ID/g
  tissue uptake at 2 h: 0.01 %ID/g
  tissue uptake at 5 h: 0.02 %ID/g
  tissue uptake at 16 h: 0.02 ± 0.01 %ID/g
  tissue uptake at 22 h: 0.01 %ID/g
In vivo; [5]
  tissue uptake at 0.5 h: 1.34 ± 0.35 %ID/g
  tissue uptake at 2 h: 0.08 ± 0.01 %ID/g
  tissue uptake at 5 h: 0.07 ± 0.01 %ID/g
  tissue uptake at 16 h: 0.07 ± 0.01 %ID/g
  tissue uptake at 22 h: 0.03 %ID/g
In vivo; [6]
  tissue uptake at 0.5 h: 3.04 ± 0.47 %ID/g
  tissue uptake at 2 h: 0.45 ± 0.03 %ID/g
  tissue uptake at 5 h: 0.41 ± 0.04 %ID/g
In vivo; 2.5 nmol per mouse, Adrenals
  tissue uptake at 0.5 h: 1.38 ± 0.32 %ID/g
  tissue uptake at 2 h: 0.28 ± 0.14 %ID/g
  tissue uptake at 16 h: 0.51 ± 0.4 %ID/g
  tissue uptake at 22 h: 0.42 ± 0.18 %ID/g
In vivo; 2.5 nmol per mouse, Bone
  tissue uptake at 0.5 h: 1.13 ± 0.26 %ID/g
  tissue uptake at 2 h: 0.17 ± 0.01 %ID/g
  tissue uptake at 5 h: 0.12 ± 0.02 %ID/g
In vivo; 2.5 nmol per mouse, Intestines
  tissue uptake at 0.5 h: 0.94 ± 0.12 %ID/g
  tissue uptake at 2 h: 0.25 ± 0.04 %ID/g
  tissue uptake at 5 h: 0.25 ± 0.03 %ID/g
  tissue uptake at 16 h: 0.16 ± 0.01 %ID/g
In vivo; 2.5 nmol per mouse, Kidneys
  tissue uptake at 0.5 h: 13 ± 1.85 %ID/g
  tissue uptake at 2 h: 7.67 ± 0.51 %ID/g
  tissue uptake at 5 h: 9.1 ± 1.66 %ID/g
  tissue uptake at 16 h: 6.13 ± 1.63 %ID/g
  tissue uptake at 22 h: 4.8 ± 0.19 %ID/g
In vivo; 2.5 nmol per mouse, Liver
  tissue uptake at 0.5 h: 1.43 ± 0.17 %ID/g
  tissue uptake at 2 h: 0.52 ± 0.04 %ID/g
  tissue uptake at 5 h: 0.53 ± 0.1 %ID/g
  tissue uptake at 16 h: 0.27 ± 0.05 %ID/g
  tissue uptake at 22 h: 0.2 ± 0.02 %ID/g
In vivo; 2.5 nmol per mouse, Lung
  tissue uptake at 16 h: 0.27 ± 0.05 %ID/g
In vivo; 2.5 nmol per mouse, Muscle
  tissue uptake at 0.5 h: 0.48 ± 0.16 %ID/g
  tissue uptake at 2 h: 0.02 %ID/g
  tissue uptake at 5 h: 0.02 ± 0.01 %ID/g
  tissue uptake at 16 h: 0.03 %ID/g
  tissue uptake at 22 h: 0.01 %ID/g
In vivo; 2.5 nmol per mouse, Pancreas
  tissue uptake at 0.5 h: 1.99 ± 0.07 %ID/g
  tissue uptake at 2 h: 1.09 ± 0.17 %ID/g
  tissue uptake at 5 h: 0.88 ± 0.11 %ID/g
  tissue uptake at 16 h: 0.34 ± 0.05 %ID/g
  tissue uptake at 22 h: 0.25 ± 0.03 %ID/g
In vivo; 2.5 nmol per mouse, Spleen
  tissue uptake at 0.5 h: 0.77 ± 0.03 %ID/g
  tissue uptake at 5 h: 0.18 ± 0.02 %ID/g
  tissue uptake at 22 h: 0.09 ± 0.01 %ID/g
In vivo; 2.5 nmol per mouse, Stomach
  tissue uptake at 0.5 h: 1.95 ± 0.23 %ID/g
  tissue uptake at 2 h: 1.14 ± 0.04 %ID/g
  tissue uptake at 5 h: 1.21 ± 0.55 %ID/g
  tissue uptake at 16 h: 0.68 ± 0.09 %ID/g
  tissue uptake at 22 h: 0.6 ± 0.22 %ID/g
In vivo; 5 nmol peptide, Adrenals
  tissue uptake at 5 h: 0.18 ± 0.05 %ID/g
In vivo; 5 nmol peptide, Kidneys
  tissue uptake at 5 h: 7 ± 0.69 %ID/g
In vivo; 5 nmol peptide, Lung
  tissue uptake at 5 h: 0.28 ± 0.01 %ID/g
In vivo; 5 nmol peptide, Spleen
  tissue uptake at 5 h: 0.11 ± 0.02 %ID/g
In vivo; 5 nmol per mouse, AR42J Tumor
  tissue uptake at 5 h: 3.82 ± 0.2 %ID/g
In vivo; 5 nmol, Blood
  tissue uptake at 5 h: 0.06 ± 0.01 %ID/g
In vivo; 5 nmol, Bone
  tissue uptake at 5 h: 0.09 ± 0.02 %ID/g
In vivo; 5 nmol, Brain
  tissue uptake at 5 h: 0.01 %ID/g
In vivo; 5 nmol, Heart
  tissue uptake at 5 h: 0.06 %ID/g
In vivo; 5 nmol, Intestines
  tissue uptake at 5 h: 0.14 ± 0.01 %ID/g
In vivo; 5 nmol, Liver
  tissue uptake at 5 h: 0.36 ± 0.04 %ID/g
In vivo; 5 nmol, Muscle
  tissue uptake at 5 h: 0.02 %ID/g
In vivo; 5 nmol, Pancreas
  tissue uptake at 5 h: 0.41 ± 0.01 %ID/g
In vivo; 5 nmol, Stomach
  tissue uptake at 5 h: 0.41 ± 0.05 %ID/g
AR42J tumor-bearing mice
  Biodistribution, AR42J Tumor: ~ 4 % IA/g
